The text below walks through data of patent US20030143225A1 (Genentech, published 2003).

Assay [1] addresses truncated transmembrane tissue factor comprising residues 1-243, relipidated (human) (UniProt P13726). The assay can be described thus: cell-based or functional assay.
The target of assay [2] is relipidated human tissue factor (Innovin) (human, UniProt P13726 33-295). The assay can be described thus: cell-based or functional assay.
Assay [3] has as its target tissue factor on human J82 cells (human, UniProt P13726 33-295). The assay can be described thus: cell-based or functional assay.
For assay [4], the target named is T1, soluble tissue factor composed of the extracellular domain residues 1-219 of hTF (human, UniProt P13726 33-251).
T1 construct: Expressed in E. coli; also called sTF
The assay can be described thus: SPR (BIAcore 2000), antibody immobilized, sTF in solution, 1:1 model.
Procedure: The binding affinity of sTF for immobilized antibody was determined by surface plasmon resonance (SPR) measurements on a Pharmacia BIAcore 2000 instrument (Pharmacia Biosensor). Each antibody was coupled to the sensor chip surface at a level of 2000-3000 resonance units using amine coupling chemistry (Pharmacia Biosensor). In a typical experiment, 4 different antibodies were immobilized on each of the 4 flow cells of the sensor chip so that sensorgrams could be recorded simultaneously for all 4 antibodies. […] The kinetic constants were determined by non-linear regression analysis according to a 1:1 binding model using software supplied by the manufacturer. Dissociation constants were calculated from the kinetic constants. […] These solutions were incubated at ambient temperature for 30 minutes prior to injection onto the sensor chip. […] Affinities were determined by SPR measurements as described above for the wild-type protein.

truncated transmembrane tissue factor comprising residues 1-243, relipidated (human), sequence (P13726 33-275): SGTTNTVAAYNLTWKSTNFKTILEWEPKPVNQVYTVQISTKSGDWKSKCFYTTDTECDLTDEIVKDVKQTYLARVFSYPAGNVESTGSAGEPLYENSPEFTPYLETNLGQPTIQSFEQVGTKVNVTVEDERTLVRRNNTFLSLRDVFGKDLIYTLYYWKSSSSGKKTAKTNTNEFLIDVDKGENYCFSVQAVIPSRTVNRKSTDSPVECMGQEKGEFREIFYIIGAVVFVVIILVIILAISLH

HTF1 antibody came in with a concentration that inhibited the initial rate of FX activation in human plasma by 50% in assay [1] of 150 µg/mL.

B1: murine anti-TF antibody 5G6 (antibody, V domains shown)
VH: EVLLQQSGPELVKPGASVKIPCKASGYTFTEYNMDWVKQSHGKSLEWIGDINPNNGNTIYNQKFKGKATLTVDKSSTTAYLELRSLTSEDTAVYFCARDHDYYFDFWGQGTTLTVSS
VL: DIQMTQTPASQSASLGESVTITCLASQTIDTWLAWYQQKPGKSPQLLIYAATSLADGVPSRFSGSGSGTKFSFKISSLQAEDFVSYYCQQPYSSPYTFGGGTKLELKR
notes: Murine monoclonal antibody purified from ascites
Regarding B1, the “antibody concentration that prolonged the clotting time by 1.5-fold (PT assay)” value in assay [2] came out at 27 µg/mL. Besides, the “IC50 of FPA generation, human ex-vivo blood flow system” value in assay [3] is 50 µg/mL. In assay [4], this molecule had a Kd of 1.7 nM, a dissociation rate constant (koff) of 0.0005 s⁻¹ and an association rate constant (kon) of 300000 M⁻¹ s⁻¹.
